Each block holds one binder with its values, some of them ahead of it.
How the values were obtained:
[1] = target: T1, Human ANGPTL4(26-406)-FLAG-His6-Avi (human, UniProt Q9BY76 24-406, biotin on the C-terminal Avi tag (BirA) where the protein is immobilised); assay: Octet (ForteBio) kinetics; average KD of the runs
T1 construct: the text calls it 20 amino acids), then QP, ANGPTL4 26-406 and FLAG-His6-Avi; the signal peptide is left out here; also called full length human ANGPTL4; hANGPTL4
T1 sequence: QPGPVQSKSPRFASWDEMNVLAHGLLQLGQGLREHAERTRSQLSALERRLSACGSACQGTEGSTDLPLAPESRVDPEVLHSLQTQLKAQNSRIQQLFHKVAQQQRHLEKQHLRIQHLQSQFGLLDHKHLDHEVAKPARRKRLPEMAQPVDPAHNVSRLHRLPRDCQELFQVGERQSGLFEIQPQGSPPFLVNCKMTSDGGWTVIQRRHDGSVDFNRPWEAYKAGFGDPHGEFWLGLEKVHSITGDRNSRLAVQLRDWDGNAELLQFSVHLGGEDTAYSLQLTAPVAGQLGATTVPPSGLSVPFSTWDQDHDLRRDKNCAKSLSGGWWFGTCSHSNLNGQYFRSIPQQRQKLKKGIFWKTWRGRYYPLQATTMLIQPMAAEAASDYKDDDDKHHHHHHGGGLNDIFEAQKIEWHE

[2] = target: T2, Human ANGPTL4(26-161)-FLAG-His6-Avi (human, biotin on the C-terminal Avi tag (BirA) where the protein is immobilised); assay: Octet (ForteBio) kinetics; average KD of the runs
T2 construct: also called human ANGPTL4 N-terminal coiled coil domain; hANGPTL4-CCD
T2 chain: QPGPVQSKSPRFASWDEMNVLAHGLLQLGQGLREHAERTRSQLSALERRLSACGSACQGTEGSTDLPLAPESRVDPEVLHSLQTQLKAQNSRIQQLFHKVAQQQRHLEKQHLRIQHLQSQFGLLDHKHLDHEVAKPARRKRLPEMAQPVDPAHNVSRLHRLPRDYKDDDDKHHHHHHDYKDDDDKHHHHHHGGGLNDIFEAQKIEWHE

[3] = target: T3, Cynomolgus monkey ANGPTL4(26-406)-FLAG-His6-Avi (cynomolgus monkey, biotin on the C-terminal Avi tag (BirA) where the protein is immobilised); assay: Octet (ForteBio) kinetics; average KD of the runs
T3 construct: also called Cyno ANGPTL4 (26-406)
T3 chain: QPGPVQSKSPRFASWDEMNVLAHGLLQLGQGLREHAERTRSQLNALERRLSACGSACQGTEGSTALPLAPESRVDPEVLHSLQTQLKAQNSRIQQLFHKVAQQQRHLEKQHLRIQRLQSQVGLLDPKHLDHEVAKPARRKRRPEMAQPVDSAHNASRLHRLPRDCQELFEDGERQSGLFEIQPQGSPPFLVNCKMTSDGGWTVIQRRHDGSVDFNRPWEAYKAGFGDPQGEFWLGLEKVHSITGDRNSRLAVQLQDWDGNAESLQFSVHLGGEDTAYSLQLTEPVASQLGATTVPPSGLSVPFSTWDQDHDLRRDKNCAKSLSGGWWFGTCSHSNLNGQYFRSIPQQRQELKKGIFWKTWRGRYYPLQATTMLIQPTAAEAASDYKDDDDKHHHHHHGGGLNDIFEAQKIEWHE

[4] = target: T4, Cynomolgus monkey ANGPTL4(26-161)-FLAG-His6-Avi (cynomolgus monkey, biotin on the C-terminal Avi tag (BirA) where the protein is immobilised); assay: Octet (ForteBio) kinetics; average KD of the runs
T4 construct: also called Cyno ANGPTL4 (26-161)
T4 chain: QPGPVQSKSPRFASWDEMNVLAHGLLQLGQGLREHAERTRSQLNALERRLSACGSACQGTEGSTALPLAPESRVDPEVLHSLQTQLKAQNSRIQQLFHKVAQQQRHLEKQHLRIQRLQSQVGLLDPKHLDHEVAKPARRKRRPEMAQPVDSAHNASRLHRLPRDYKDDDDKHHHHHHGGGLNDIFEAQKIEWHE

[5] = target: T5, Human ANGPTL3(17-460)-FLAG-His-Avi (human, UniProt Q9Y5C1 17-460, biotin on the C-terminal Avi tag (BirA)); assay: Octet (ForteBio) kinetics, biotinylated antigen on streptavidin sensor, IgG in solution; no binding at 25 nM
T5 construct: also called full length human ANGPTL3; hANGPTL3
T5 sequence: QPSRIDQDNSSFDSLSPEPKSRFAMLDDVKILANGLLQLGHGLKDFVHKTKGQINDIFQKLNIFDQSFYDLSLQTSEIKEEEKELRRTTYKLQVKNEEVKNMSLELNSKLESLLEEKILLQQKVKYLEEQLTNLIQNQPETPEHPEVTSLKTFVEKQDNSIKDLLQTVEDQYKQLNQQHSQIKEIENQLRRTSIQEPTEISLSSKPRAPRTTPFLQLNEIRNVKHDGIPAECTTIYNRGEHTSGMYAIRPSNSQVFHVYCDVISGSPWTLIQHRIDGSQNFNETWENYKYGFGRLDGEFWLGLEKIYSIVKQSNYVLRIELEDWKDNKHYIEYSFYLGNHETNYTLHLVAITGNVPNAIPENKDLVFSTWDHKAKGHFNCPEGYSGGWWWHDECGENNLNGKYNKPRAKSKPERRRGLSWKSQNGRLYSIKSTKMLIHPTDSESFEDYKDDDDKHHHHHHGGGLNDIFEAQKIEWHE

[6] = target: T1, Human ANGPTL4(26-406)-FLAG-His6-Avi; assay: Octet (ForteBio) kinetics, biotinylated antigen on streptavidin sensor, IgG in solution; slower than the limit of detection (about 5e-6 s^-1)
Procedure: Dissociation constants (KD) were determined for selected antibodies of the invention by using an Octet (ForteBio) kinetic binding assay. ForteBio 10× Kinetics Buffer (ForteBio, catalog number 18-5032) was diluted 10-fold with DPBS (Life Technologies, catalog number 14190-136), and the resulting solution was added (0.2 ml per well) to a 96-well plate (Greiner, catalog number 65520). Streptavidin sensors (ForteBio, catalog number 18-5020) were immersed in the solution and equilibrated for at least 10 min at room temperature. In a second 96-well plate (Greiner, catalog number 65520), sensors were washed in 1× Kinetics buffer, and then immersed in 200 ul of 25 nM biotinylated human ANGPTL4 or a biotinylated reference protein (for background subtraction) for 1000 sec at […] room temperature. […] The sensors were then transferred to a well containing 200 μl 1× Kinetics buffer, and antibody dissociation was monitored for 1200 seconds. Background-corrected association and dissociation curves were globally fitted by Octet Software (ForteBio) to generate association (kₐ) and dissociation (kd) rate constants, which in turn were used to calculate equilibrium dissociation constants (KD).

Kd [1]: 0.013 nM
Kd [2]: 0.038 nM
Kd [3]: 0.015 nM
Kd [4]: 0.056 nM
Kd [5]: > 6 nM
B1: NEG276-LALA (antibody, human IgG1, kappa, L234A L235A)
heavy: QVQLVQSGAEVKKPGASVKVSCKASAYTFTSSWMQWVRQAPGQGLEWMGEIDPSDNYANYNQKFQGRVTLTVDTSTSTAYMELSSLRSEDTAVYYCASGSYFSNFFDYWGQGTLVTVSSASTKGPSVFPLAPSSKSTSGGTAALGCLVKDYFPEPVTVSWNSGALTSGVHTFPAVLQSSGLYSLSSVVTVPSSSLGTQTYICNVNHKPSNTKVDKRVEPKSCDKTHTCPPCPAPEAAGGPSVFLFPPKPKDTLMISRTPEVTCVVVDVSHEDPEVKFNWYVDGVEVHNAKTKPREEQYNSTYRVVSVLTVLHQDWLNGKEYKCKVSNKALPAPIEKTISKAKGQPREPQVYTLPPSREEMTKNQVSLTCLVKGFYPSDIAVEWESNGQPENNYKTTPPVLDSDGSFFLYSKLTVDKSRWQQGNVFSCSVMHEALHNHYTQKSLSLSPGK
light: EIVMTQSPATLSVSPGERATLSCKASQDIGSNLNWLQQKPGQAPRRLIYAVSNRGPGIPARFSGSRSGSEYTLTISSLQSEDFAVYYCLQYASSPWTFGQGTKVEIKRTVAAPSVFIFPPSDEQLKSGTASVVCLLNNFYPREAKVQWKVDNALQSGNSQESVTEQDSKDSTYSLSSTLTLSKADYEKHKVYACEVTHQGLSSPVTKSFNRGEC

koff [6]: 6.7e-07 s⁻¹
B2: NEG278 (antibody, human IgG1, kappa, V domains shown)
VH: QVQLVQSGAEVKKPGASVKVSCKASAYTFTSSWMQWVRQAPGQGLEWMGEIDPSDNYANYNQKFQGRVTLTVDTSTSTAYMELSSLRSEDTAVYYCASGSYFSNFFDYWGQGTLVTVSS
VL: EIVMTQSPATLSVSPGERATLSCKASQDIGSNLNWLQQKPGQAPRRLIYAASVREPGIPARFSGSRSGSEYTLTISSLQSEDFAVYYCLQYASSPWTFGQGTKVEIKR
notes: humanized, hIgG1/kappa, parental antibody 19C16

Source: patent publication US20220213181A1 (Novartis, published 2022)
